Measurements: doi:10.1101/2022.05.23.492800 (2022)

Tests used:
Experiment in all cases: multimer staining
[1] = target: T1, SARS-CoV-2 Spike protein peptide on HLA-A*23:01 (human)
T1 peptide: QYIKWPWYIW

[2] = target: T2, SARS-CoV-1 Spike protein peptide on HLA-A*24:02 (human)
T2 peptide: QYIKWPWYVW

[3] = target: T3, SARS-CoV-2 Spike protein peptide on HLA-A*24:02 (human)
T3 peptide: QYIKWPWYIW

Measured: binding result

B1: TCRQYI (TCR)
alpha TRAV20*01 TRAJ32*01 CDR3: CAALNYGGATNKLIF
beta TRBV4-3*01 TRBJ2-7*01 CDR3: CASSPSGGAYEQYF
recognises: [1] | [2] | [3]
